In assay [1] the target is T1, hASIC1a (hASIC1a-mCherry, 4C12 cells) (Homo sapiens, UniProt P78348).
T1 construct: expressed in transfected cells
Put plainly: FLIPR assay of acid-induced ASIC1a-mediated calcium influx in 4C12 cells. The class given is cell-based. The following applies: at 30 µM. How it is done:
Calcium Influx. The FLIPR Calcium 5 Assay kit was used to determine the acid-induced calcium influx in the hASIC1a-mCherry-expressing stable CHO-K1 cells (4C12). Cells were seeded in a clear bottom 96-well plate at a density of 10,000 per well 24 h before assay. Assay buffer and dye loading buffer (1.26 mM CaCl2, 0.5 mM MgCl2, 0.4 mM MgSO4, 5.33 mM KCl, 0.44 mM KH2PO4, 4.17 mM NaHCO3, 138 mM NaCl, 0.338 mM Na2HPO4, 20 mM HEPES, pH 7.4) were prepared according to the manufacturer's instruction. Probenecid was added to the dye loading buffer to a final concentration of 2.5 mM immediately before use. Fifty microliters of the assay buffer containing ASC06-IgG1 was incubated with the 4C12 cells for 30 min at 37° C., and an equal volume of the dye loading buffer was added. […] Cells were incubated with the dye loading buffer for 1 h before reading on an FDSS/μCELL plate reader (Hamamatsu). […] The progression curve of the calcium signal produced in each well was recorded continuously for 10 s before the addition of the activation buffer (preread) and 170 s after the addition on an FDSS/μCELL (excitation wavelength: 480 nm; emission wavelength: 540 nm) FLIPR reader. […]
The calcium influx of the ASIC1a was measured on a FLIPR instrument using the stable cell line 4C12 expressing hASIC1a-mCherry fusion. […]

Assay [2] concerns the target T2, hASIC1a Y318A mutation (hASIC1a-eYFP) (human, UniProt P78348 1-528).
T2 construct: whole, on cells; Transiently expressed on CHO-K1 cells; not shown: eYFP fusion
T2 sequence (looked up): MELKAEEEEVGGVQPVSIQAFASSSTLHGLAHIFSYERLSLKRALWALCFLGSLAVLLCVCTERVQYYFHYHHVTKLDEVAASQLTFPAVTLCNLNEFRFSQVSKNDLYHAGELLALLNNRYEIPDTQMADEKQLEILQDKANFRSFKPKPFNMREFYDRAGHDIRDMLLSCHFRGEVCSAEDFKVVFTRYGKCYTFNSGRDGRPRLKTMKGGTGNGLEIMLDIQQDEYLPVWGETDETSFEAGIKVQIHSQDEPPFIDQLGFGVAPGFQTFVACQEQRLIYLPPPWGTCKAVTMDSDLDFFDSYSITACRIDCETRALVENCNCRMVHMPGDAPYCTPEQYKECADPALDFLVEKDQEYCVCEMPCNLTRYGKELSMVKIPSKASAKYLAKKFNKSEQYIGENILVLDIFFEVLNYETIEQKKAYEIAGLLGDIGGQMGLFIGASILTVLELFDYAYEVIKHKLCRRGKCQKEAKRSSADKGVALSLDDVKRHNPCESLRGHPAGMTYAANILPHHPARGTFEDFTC
The assay can be described thus: flow cytometry, CHO-K1 cells transiently transfected with hASIC1a Y318A-eYFP, ASC06-IgG1 and labelled second antibody.

Another assay addresses T3, hASIC3a-eYFP (human, UniProt Q9UHC3 1-531).
T3 construct: whole, on cells; Transiently expressed on CHO-K1 cells; not shown: eYFP fusion
T3 sequence (looked up): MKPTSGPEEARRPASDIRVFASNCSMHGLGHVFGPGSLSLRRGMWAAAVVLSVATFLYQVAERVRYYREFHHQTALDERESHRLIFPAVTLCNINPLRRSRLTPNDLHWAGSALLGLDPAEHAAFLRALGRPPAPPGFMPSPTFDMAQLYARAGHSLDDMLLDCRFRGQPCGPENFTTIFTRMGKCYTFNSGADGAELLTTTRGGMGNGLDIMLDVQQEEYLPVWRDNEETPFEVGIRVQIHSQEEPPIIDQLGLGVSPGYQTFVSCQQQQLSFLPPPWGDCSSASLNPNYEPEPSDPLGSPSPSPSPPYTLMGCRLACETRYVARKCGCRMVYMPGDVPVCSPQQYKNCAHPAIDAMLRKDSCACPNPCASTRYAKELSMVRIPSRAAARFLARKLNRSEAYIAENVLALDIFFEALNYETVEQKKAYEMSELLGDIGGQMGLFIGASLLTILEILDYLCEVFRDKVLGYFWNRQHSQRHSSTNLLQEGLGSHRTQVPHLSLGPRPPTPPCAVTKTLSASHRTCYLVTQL
The assay can be described thus: flow cytometry, CHO-K1 cells transiently transfected with hASIC3a-eYFP, Alexa555-conjugated ASC06-IgG1.

Assay [3] deals with T4, hASIC1a-eYFP (human, UniProt P78348 1-528).
T4 construct: whole, on cells; On CHO-K1 cells, stably (6H7) or transiently transfected; also called full-length hASIC1a (1-528 amino acids) fused with eYFP; CHO-K1/hASIC1a cells; not shown: C-terminal eYFP fusion
T4 sequence (looked up): T2 sequence (looked up) with A318Y
Put plainly: flow cytometry on 6H7 cells (stable hASIC1a-eYFP), Alexa555 secondary antibody.

For assay [4], the target named is truncated hASIC1a (amino acids 13-464) (human) (UniProt P78348). Put plainly: SPR (Biacore T200), single cycle kinetics, Flag-tagged ΔhASIC1a captured on anti-Flag chip, antibody as analyte.
In a further assay the target is hASIC2a/2b-eYFP (human) (UniProt Q16515). The assay can be described thus: flow cytometry, CHO-K1 cells transiently transfected with hASIC2a/2b-eYFP, Alexa555-conjugated ASC06-IgG1; eYFP-positive cells without antibody signal: Q1-LR(27.09%).
The target of the next assay is T5, hASIC2a-eYFP (human, UniProt Q16515 1-512).
T5 construct: whole, on cells; Transiently expressed on CHO-K1 cells; not shown: eYFP fusion
T5 sequence (looked up): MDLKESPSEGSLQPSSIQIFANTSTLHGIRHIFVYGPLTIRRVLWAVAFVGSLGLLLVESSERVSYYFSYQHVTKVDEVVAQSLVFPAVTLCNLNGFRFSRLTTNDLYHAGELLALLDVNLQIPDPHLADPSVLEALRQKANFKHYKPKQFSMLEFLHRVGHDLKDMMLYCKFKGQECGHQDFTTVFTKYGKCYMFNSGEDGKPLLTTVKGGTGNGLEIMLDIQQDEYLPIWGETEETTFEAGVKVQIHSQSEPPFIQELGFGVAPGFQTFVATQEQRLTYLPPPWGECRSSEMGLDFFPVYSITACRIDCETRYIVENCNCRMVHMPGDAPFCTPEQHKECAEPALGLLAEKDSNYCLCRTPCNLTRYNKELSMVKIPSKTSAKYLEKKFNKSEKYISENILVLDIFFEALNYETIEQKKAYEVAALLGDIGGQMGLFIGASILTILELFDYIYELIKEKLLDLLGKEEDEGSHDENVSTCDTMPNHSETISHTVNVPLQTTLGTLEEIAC
Put plainly: flow cytometry, CHO-K1 cells transiently transfected with hASIC2a-eYFP, Alexa555-conjugated ASC06-IgG1.

For the next assay, the target named is hASIC1b-eYFP (human) (UniProt P78348). Put plainly: flow cytometry, CHO-K1 cells transiently transfected with hASIC1b-eYFP, Alexa555-conjugated ASC06-IgG1; eYFP-positive cells without antibody signal: Q1-LR(49.22%).
In a further assay the target is T6, hASIC1a-mCherry (human, UniProt P78348 1-528).
T6 sequence (looked up): T2 sequence (looked up) with A318Y
Put plainly: cell-based or functional assay.

In assay [5] the target is T4, hASIC1a-eYFP. Put plainly: cell-based or functional assay.

Changes are numbered by the printed parent chain.

T1 sequence (P78348 whole entry): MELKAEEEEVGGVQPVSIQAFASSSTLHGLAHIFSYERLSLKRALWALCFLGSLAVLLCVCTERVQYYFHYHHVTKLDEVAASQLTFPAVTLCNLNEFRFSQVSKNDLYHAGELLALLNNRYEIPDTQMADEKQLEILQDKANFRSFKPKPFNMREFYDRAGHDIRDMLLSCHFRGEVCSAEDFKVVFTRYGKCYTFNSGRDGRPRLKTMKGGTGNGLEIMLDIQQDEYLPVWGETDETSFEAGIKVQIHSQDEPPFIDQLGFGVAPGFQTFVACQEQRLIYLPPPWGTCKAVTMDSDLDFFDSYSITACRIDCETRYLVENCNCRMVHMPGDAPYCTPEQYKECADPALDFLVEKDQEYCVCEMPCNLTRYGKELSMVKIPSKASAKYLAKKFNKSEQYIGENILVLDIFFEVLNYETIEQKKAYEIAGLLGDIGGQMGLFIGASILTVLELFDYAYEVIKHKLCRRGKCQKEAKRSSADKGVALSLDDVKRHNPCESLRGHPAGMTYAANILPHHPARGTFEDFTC
Text for hASIC2a-eYFP: 10,000 cells were sorted.
(§1) The CHO-K1 cells were transiently transfected with these plasmids.
Text for hASIC3a-eYFP: 10,000 cells were sorted.
as §1

`N=C(N)NC(=O)c1nc(Cl)c(N)nc1N` [amiloride]: in [1], the “inhibition of calcium influx” value was found to be 21%.

B1: ASC06-IgG1 (antibody, V domains shown)
VH: QVQLQQSGGGLVQPGGSLRLSCAASGFTFSSYAMSWVRQAPGKGLEWVSAISGSGGSTYYADSVKGRFTISRDNSKNTLYLQMNSLRAEDTAVYYCAKDSFYGYSKGDWGQGTLVTVSS
VL: QSALTQPASVSGSPGQSITISCTGTSSDVGAYNYVSWYQQQPGKAPKLMIYGVSNRPSGVSNRFSGSKSGNAASLTISGLQAEDEADYYCSSYTSSSTYVFGTGTKLTVLG
notes: also called full length (ASC06-IgG1); ASC06-lgG1
B1: the binding result (in [2]; with hASIC3a-eYFP; with hASIC2a-eYFP) was “no binding” throughout. Also, the midpoint of the response with hASIC1a-eYFP [3], the EC50, lay at 2.06 nM. In assay [4], this molecule had a Kd of 7.9 nM. The percent of cells in quadrant Q1-UR (Alexa555 and eYFP double-positive) turned out to be 0.11% with hASIC2a/2b-eYFP (human) and 0.15% with hASIC1b-eYFP (human). Moreover, in the assay with hASIC1a-mCherry, the “IC50 of inhibition of acid-induced calcium influx, FLIPR assay on 4C12 cells” value worked out at 2.9 nM. Besides, the “apparent IC50 of inhibition of acid (pH 6.0)-induced currents, whole-cell patch clamp on the hASIC1a stable cell line” value in the assay with hASIC1a-eYFP [5] worked out at 85 nM.

Values taken from patent US12692310B2, “ASIC1 channel antagonist antibody” (ShanghaiTech University, priority 2019, dated 2026).
